Experimental data as given in patent US9433687B2, “Anti-Notch3 antibodies and antibody-drug conjugates” (Pfizer Inc., priority 2012, dated 2016).

T1: human Notch2 NRR-Fc (Homo sapiens, UniProt Q04721)
T1 construct: Expression constructs encoding human Notch1 and Notch2 NRR regions, fused with human IgG1 Fc fragments; made in house; host or cells: CHO-PACE cells
T1 sequence (Q04721 1425-1677 limits assumed): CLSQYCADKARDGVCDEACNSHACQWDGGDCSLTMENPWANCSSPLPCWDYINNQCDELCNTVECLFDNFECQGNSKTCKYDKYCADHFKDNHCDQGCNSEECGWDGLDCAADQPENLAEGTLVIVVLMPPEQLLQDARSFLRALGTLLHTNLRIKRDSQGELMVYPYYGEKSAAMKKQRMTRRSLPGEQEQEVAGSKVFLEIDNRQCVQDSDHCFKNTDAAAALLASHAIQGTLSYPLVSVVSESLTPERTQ

T2: human Notch3 NRR recombinant protein (Homo sapiens, UniProt Q9UM47)
T2 construct: made in house
T2 sequence (Q9UM47 with tags, fused parts or gaps): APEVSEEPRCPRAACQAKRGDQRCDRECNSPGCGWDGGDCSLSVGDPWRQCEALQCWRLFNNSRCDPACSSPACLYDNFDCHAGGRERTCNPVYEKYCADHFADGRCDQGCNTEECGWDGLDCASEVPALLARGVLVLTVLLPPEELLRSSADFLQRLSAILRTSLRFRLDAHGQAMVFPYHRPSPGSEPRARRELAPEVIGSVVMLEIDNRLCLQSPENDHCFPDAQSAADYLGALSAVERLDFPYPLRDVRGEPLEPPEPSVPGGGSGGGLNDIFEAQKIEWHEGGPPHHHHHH

T3: human Notch1 NRR-Fc (Homo sapiens, UniProt P46531)
T3 construct: Expression constructs encoding human Notch1 and Notch2 NRR regions, fused with human IgG1 Fc fragments; made in house; host or cells: CHO-PACE cells
T3 sequence (P46531 1446-1733 limits assumed): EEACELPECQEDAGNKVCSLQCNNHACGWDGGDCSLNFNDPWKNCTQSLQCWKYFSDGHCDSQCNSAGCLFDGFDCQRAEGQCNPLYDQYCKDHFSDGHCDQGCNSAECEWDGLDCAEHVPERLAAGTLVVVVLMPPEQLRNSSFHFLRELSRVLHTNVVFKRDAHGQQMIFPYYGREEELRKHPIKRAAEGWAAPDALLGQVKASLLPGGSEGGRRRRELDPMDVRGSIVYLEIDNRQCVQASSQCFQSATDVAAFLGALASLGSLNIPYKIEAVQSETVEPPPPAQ


Tests used:
human Notch2 NRR-Fc = biological target: T1, human Notch2 NRR-Fc; test: Binding to Notch2 NRR-Fc; details: N/B = non-binding
From the text: (§1) Other members of the Notch receptor family play important roles in biological processes. For example, a Notch1 or Notch2 deficiency leads to embryonic death in mouse models. In contrast, a Notch4 deficiency results in no detectable phenotype in mouse models. The closest homologues of the Notch3 NRR region are Notch1 and Notch2 (˜50% homology), and Notch4 is a more distant homologue (˜30% homology). Cross-reactivity of anti-Notch3 antibodies to other members of the Notch family, especially Notch1 and 2, may lead to undesired effects in patients. Therefore, the potential cross-reactivity of r28 and hu28, along with r75 and hu75 to other Notch family members were assessed.
(§2) Expression constructs encoding human Notch1 and Notch2 NRR regions, fused with human IgG1 Fc fragments were stably introduced into CHO-PACE cells. Conditioned media from these cells expressing NRR-Fc fusions were collected. Human Notch2 NRR-Fc and human Notch1 NRR-Fc were purified by protein A affinity followed by size exclusion chromatography (SEC). Purified preparations were dialysed into TBS with 1 mM CaCl2 and analyzed on analytical SEC to be >99% in purity.

[1] = Thermal stability by differential scanning calorimetry (DSC); type: physicochemical; details: 0.3 mg/ml in PBS
Description: There is a positive correlation between the thermal stability of a protein or protein domain with the overall stability of the protein or protein domain. A higher melting point of a protein or protein domain often provides improved manufacturability and longer shelf life. Differential scanning calorimetry (DSC) was used to assess the thermal stability of hu28 and hu75 versus ch28 and ch75, respectively. Protein samples were diluted in PBS to 0.3 mg/ml in a volume of 250 μl. The corresponding formulation buffer blank was used for the reference sample. Both samples were thoroughly degassed using a MicroCal ThermoVac Sample Degassing and Thermostat (Microcal, Inc., Northampton, Mass.) set to 8° C. Samples were dispensed into the appropriate cells of a MicroCal VP-DSC Capillary Cell MicroCalorimter (MicroCal, Inc., Northampton, Mass.). Samples were equilibrated for 4 minutes at 15° C. and then scanned up to 100° C. at a rate of 100° C. per hour. A filtering period of 20 seconds was selected. Raw data was baseline corrected and the protein concentration was normalized. Origin Software (OriginLab Corporation, Northampton, Mass.) was used to fit the data to an MN2-State Model with an appropriate number of transitions.

[2] = biological target: T2, human Notch3 NRR recombinant protein; test: Surface plasmon resonance (Biacore) kinetic analysis; type: binding; details: antibody captured; 1:1 Langmuir model
Description: The kinetic constants of the anti-Notch3 NRR interactions were determined by surface plasmon resonance (Biacore® T100, Biacore Inc., Piscataway, N.J.). Flow cells of a CM5 chip were immobilized with approximately 10,000 response units (RU) of anti-human IgG-Fc (Biacore®) in 10 mM Glycine, pH 5.0 at 10 μl/min for 600 seconds. 10 μg/ml of anti-Notch3 antibodies ch28 and hu28, and ch75 and hu75 were diluted in TBS with 1 mM CaCl2 were captured at 10 μl/min. Association of four concentrations of human Notch3 NRR recombinant protein (from 3.7-100 nM) and a zero concentration (running buffer) at 100 μl/min were recorded for 3 minutes in TBS with 1 mM CaCl2. Dissociation of the complexes was measured for 10 minutes. The surface of the chip was regenerated by injecting 3M MgCl2 with 3 mM EGTA for 60 seconds at 10 μl/min. Curves obtained after subtraction of the reference and buffer signals were fitted to a 1:1 Langmuir binding model with Biacore® T100 Evaluation Software (Biacore®).

human Notch1 NRR-Fc = biological target: T3, human Notch1 NRR-Fc; test: Binding to Notch1 NRR-Fc; details: N/B = non-binding
From the text: as §1, §2

Binding to Notch2 NRR-Fc (human Notch2 NRR-Fc) | ka [2] [M⁻¹ s⁻¹] | kd [2] [s⁻¹] | Binding to Notch1 NRR-Fc (human Notch1 NRR-Fc) | Molecule | Tm ± Standard Deviation, CH2 [1] [°C] | Tm ± Standard Deviation, CH3 [1] [°C] | Tm ± Standard Deviation, Fab [1] [°C]
N/B | 386000 | 0.000347 | N/B | hu28 VH1.0/VL1.0: humanized r28 variant VH1.0/VL1.0, anti-Notch3 antibody (VH SEQ ID NO: 13, VL SEQ ID NO: 25) (antibody, V domains shown) VH: EVQLVESGGGLVQPGGSLRLSCAASGFTFRDYGMTWVRQAPGKGLEWVAYISSGSNYIYYAEAVKGRFTISRDNAKNSLYLQMNSLRAEDTAVYYCARRGPFVLDAWGQGTLVTVSS VL: DIQMTQSPSSLSASVGDRVTITCKASQSINRYLHWYQQKPGKAPKLLIYNANGLQTGVPSRFSGSGSGTDFTLTISSLQPEDFATYYCLQHNTWPDTFGGGTKVEIK | 72.63 ± 0.03 | 83.45 ± 0.17 | 83.45 ± 0.17
N/B | 57000 | 0.000992 | N/B | ch75: rat-human chimeric anti-Notch3 antibody 75, rat variable regions fused with human IgG1 and human kappa (antibody, V domains shown) VH: QVKLLQSGAALVKPGASVKMSCKASGYAFTDYWVTWVKQSHGKSLEWIGEISPNSGGTNFNEKFKGKATLTVDKSTSTAYMELSRLTSEDSAIYYCTRGEIRYNWFAYWGQGTLVTVSS VL: NIVMTQSPKSMSISVGDRVTMNCKASQNVGNNIAWYQQKPGQSPKLLIYYASNRYTGVPDRFTGGGYGTDFTLTINSMQAEDAAFYYCQRLYNSPFTFGSGTKLEIK | 73.32 ± 0.01 | 84.59 ± 0.03 | 73.32 ± 0.01
